This is an account of results in the nanobody polyreactivity screen of Harvey et al. (2022).

The nature of the data set: yeast display, Sf9 membrane polyspecificity reagent, FACS + sequencing; frameworks hold sequencing errors. The gist of the method: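 Genes from sorted yeast were amplified by colony PCR, read by MiSeq 2 × 250 sequencing and filtered on CDR length. These cells carried a synthetic nanobody library in Saccharomyces cerevisiae BJ5465 and were sorted by FACS into low and high (top ~1%) gates on anti-HA and streptavidin fluorescence. Polyreactivity is labelled according to the gate of origin.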
In the case of “QVQLVESGGGIVQAGGSLRLSCAASGITFGRYVMGWYRQAPGKERELVAAISRSGGSTYYADSVKGRFTISRDNAKNTVYLQMNSLKPEDTAVYYCAADLRQTGYGWYDYWGQGTQVTVSS”, the “polyreactivity (PSR sort gate)” value was “high polyreactivity”.

For “QVQLVESGGGIVQAGGSLRLSCAASGLIFRRYTMGWYRQAPGKERELVAAIRNSGSSTDYADSVKGRFTISRDNAKNTVYLQMNSLKPEDTAVYYCAKRSARKLTYDSWGQGTQVTVSS”, the “polyreactivity (PSR sort gate)” value is “low polyreactivity”. The entry for “QVQLVESGGGIVQAGGSLRLSCAASGLILYWYAMGLYRQAPGKERYLVAAISISGGSTYYADSVKGRFTISRDNAKNTVYLQMNSLKPEDTAVYYCAAVYFYSWEGDGDYWGQGTQVTVSS” is “low polyreactivity”.

Regarding “QVQLVESGGGIVQAGGSLRLSCAASGLTFSIYPIGWYRQAPGKERELVAAISWSGGSTYYADSVKGRFTISRDNAKNTVYLQMNSLKPEDTAVYYCAARVYRPWWSYDYWGQGTQVTVSS”, the “polyreactivity (PSR sort gate)” value was “high polyreactivity”. With “QVQLVESGGGIVQAGGSLRLSCAASGLTICDYAMGWYRQAPGKERELVAAISSSGGRTYYADSVKGRFTISRDNAKNTVYLQMNSLKPEDTAVYYCAAQSKYYQYYSWGQGTQVTVSS”, the “polyreactivity (PSR sort gate)” value is given as “high polyreactivity”. “QVQLVESGGGIVQAGGSLRLSCAASGNNIGGNAMGWYRQAPGKERELVAAISNSGVRTYYADSVKGRFTISRDNAKNSVDLQMNSLKPEDTAVYYCYVLGNYYGKFDYWGQGTQVTVSS”: the “polyreactivity (PSR sort gate)” value was “high polyreactivity”. Consider “QVQLVESGGGIVQAGGSLRLSCAASGRIFDGYAMGWYRQAPGKESQLVAAISATGGSTYYADSVKGRFTISRDNAKNTVYLQMNSLKPEDTAVYYCATDYVRGLYRYKLSRYEYWGQGTQETVSS”, for which the “polyreactivity (PSR sort gate)” value was “low polyreactivity”.

Take “QVQLVESGGGIVQAGGSLRLSCAASGRIFGYYAMGWYRQAPGKERELVARISSSGGSTYYADSVKGRFTISRDNAKNTVYVQMNSLKPEDTAVDYCNTASNRYPGWRAEFDYWGQGTQVTVSS”: the “polyreactivity (PSR sort gate)” value is “low polyreactivity”. To “QVQLVESGGGIVQAGGSLRLSCAASGRIFNRYAMGWYRQAPGKKWELVATISVSGANTYYADSVKGRFTISRDNAKNTVYLQMNSLKPEDTAVYSCNVKRGTIGGYYYWGQVTQVTVSS” belongs “high polyreactivity”.

For “QVQLVESGGGIVQAGGSLRLSCAASGRIFSEYAMGWYRQAPGKERELVARITSSGGSTSYADSVKGRFTISRDNAKNTVYLQMNSLNPVDTAVYYCAGDGVWRRFYYLHYYWGQGTQVTVSS”, the “polyreactivity (PSR sort gate)” value is reported as “high polyreactivity”. The entry for “QVQLVESGGGIVQAGGSLRLSCAASGRIFSPNAMGWYRQAPGKERELVASISSAGSTNYADSVKGRFTISRDNAKNTVDLLMKSLIPEDTAVYYCDADQPYYGYWDWYSHEYDYWGQGTQVSVSS” is “low polyreactivity”; for “QVQLVESGGGIVQAGGSLRLSCAASGRIFSVYAKGWTRQAPGKERELVAAISSGGTTYYADSVKGRFTNSRDNAKNTVYLLMNSQKPDDTAVYYFAASVYYYRYNYWGQGTQVTVSS” it is “low polyreactivity”. Take “QVQLVESGGGIVQAGGSLRLSCAASGRIFTRYVMGWYRQAPGKERELVAAITGRGTTTYYADSVKGRFTISRDNAKNTVYLKMNSLKPEDTAVYYCAATYYASNPQFTTNYGYWGQGTQVTVSS”: the “polyreactivity (PSR sort gate)” value was “high polyreactivity”.

Turning to “QVQLVESGGGIVQAGGSLRLSCAASGRIFVRYAKGWYRQAPGKERELVAAITKSGGSTYYADSEKGRFTISRDTAKNTVYLQMNCLQPDDTAVYYCNADRFYIDYTNTYDSIRDYWGQGTLVTVSS”, the “polyreactivity (PSR sort gate)” value is reported as “low polyreactivity”. The entry for “QVQLVESGGGIVQAGGSLRLSCAASGRIYRYNAMGWYRQAPGKERELVASINQRGGSTYYADSVKGRFTISRDNAKNTVYLQMNSLKPEDTAVYYCAQSFNSGYYYWGQGTQVTVSS” is “high polyreactivity”; for “QVQLVESGGGIVQAGGSLRLSCAASGRNFDVYAMGWYRQAAGKERELVATISSSGVSTSYADSVKGRFTISRDNAKNTVYLQMNSLKPEDSAVYYCARKFLWKGFDYWGQGTQVTVSS” it is “low polyreactivity”. The entry for “QVQLVESGGGIVQAGGSLRLSCAASGRNSNRYAMGWYRQAPGKEREFVAAISKSGTSTYYADSVKGRFTISRDNAKNTVYLQMNSLKPEDTAVYYGAAKTGVGLRVNSGIGFYYWGQGTQVTVSS” is “high polyreactivity”; for “QVQLVESGGGIVQAGGSLRLSCAASGRSFPNNAMGWYRPAPGKERELLAAISSGSSTDYADSVKGRFTISRDNAKNTVSLQMNSLKPEATAVYYCNAGDYTYPGSPWPGYAYDYWGLGTQVTVSS” it is “low polyreactivity”; for “QVQLVESGGGIVQAGGSLRLSCAASGRSFYRYARGWDRQAPGKERELVASITRSGITHYADSVKGRFTISRDNAKNPVYLQMISLKPEDTAVYYCNGRRGSPAPYDYWGQGTQVTVSS” it is “high polyreactivity”. For “QVQLVESGGGIVQAGGSLRLSCAASGRTFAGYAMGWYRQAPGKERELVAGISVDDSTTYYADSVKGRFTISRDNANNTVYLQMISLKPEDTAVYYCNADYIDTFRGFDYWGQGTLVTVSS”, the “polyreactivity (PSR sort gate)” value was “low polyreactivity”.

Turning to “QVQLVESGGGIVQAGGSLRLSCAASGRTFFYYAMGWYRQAPGKERELVAAITTDGGTTYYADSVKGRFTISRDNAKNTVSLQMNSLKPEDTAGYYCAADASYQYYPYDYWGQGTQVTVSS”, the “polyreactivity (PSR sort gate)” value is given as “low polyreactivity”. To “QVQLVESGGGIVQAGGSLRLSCAASGRTFGYYAMRWYRQAPGKERELVAAIYWSGGSTRYADSVKGRFTISRDNAKNTVYLQMNSLNPDDTAVYYCAADSWYSFAGVYRVYGEDYWGQGTEVTVSS” belongs “low polyreactivity”; to “QVQLVESGGGIVQAGGSLRLSCAASGRTFKSYAMGWYRQAPGKERELVAAISRSGDRTYYADSVKGRFTISRDNAKNTVYLQMNSLKREDTAVYYCNARAVTGDRSDDYWGQGTHVTVSS”, “high polyreactivity”; to “QVQLVESGGGIVQAGGSLRLSCAASGRTFKWNAMGWYRQAPGKEREFVATISYSGGSTYYADSVKGRFTISRDIAKNSVYLQMKSLKPEDSAVYYCAAGSPYRFWHRFDYWGQGTQVTVSS”, “high polyreactivity”. Regarding “QVQLVESGGGIVQAGGSLRLSCAASGRTFSPYAMGWYRQAPGKERELVAGITWSGGSTYYSDSVKGRFTISRDYAKNPVYFQMNFLKPEDTAVYYCNAVGTYAYYCSFAYDYWGQGTQVNVSS”, the “polyreactivity (PSR sort gate)” value is “high polyreactivity”. The entry for “QVQLVESGGGIVQAGGSLRLSCAASGRTFSWNTMGWYRQAPGKERELVAAITRVGTTYYADSVKGRFTISRDNAKNTVYLQMNSLKPEDTAVYYCAVKGPRWAYPGVDYWGQGTQVTVSS” is “high polyreactivity”. The entry for “QVQLVESGGGIVQAGGSLRLSCAASGRTFYPNGMGWYRQERGKERQLVAAITSGGRTNYADSVKGRFTISRDNAKNTVYLQMHSRKPEDTAVYYSNAVKRRSTSSGMDYWGQGTQVTVSS” is “high polyreactivity”; for “QVQLVESGGGIVQAGGSLRLSCAASGRTSWYYAMGWYRQAPGKERELVAAITASGGSTYADSVKGRFTISRDNAKTSVYLQMNRLKPEDSAVYYCAAERPYSRVGYYYWGQGTQVTVSS” it is “high polyreactivity”; for “QVQLVESGGGIVQAGGSLRLSCAASGSIFFYYAMGWFRPAPGQERELVAAITSSGGTTYYADSVKGRFTISRDNAKNTVYLEMNSLKPEDTAVYDCNALTVGQRDYDYWGQGTQVTVSS” it is “high polyreactivity”. In the case of “QVQLVESGGGIVQAGGSLRLSCAASGSIFYGYAMGWYRQAPGNERELVAAISSGGRTKYADSVKGRFTISRDNAKNTVYLQMNSLKPEDTAVYYCNVSYLVYRWNFGWSMDYWGQGTQVTVSP”, the “polyreactivity (PSR sort gate)” value is “low polyreactivity”. With “QVQLVESGGGIVQAGGSLRLSCAASGSIQRYNDMGWYRQAPGKERELVAAISRSGGSTYYTDSVKGRFTISRDNAKNTDYLQMNSLKPEDTAVYFCYKASYTTVYAKYYYWGLGTQVTVSS”, the “polyreactivity (PSR sort gate)” value is listed as “high polyreactivity”. The entry for “QVQLVESGGGIVQAGGSLRLSCAASGSTFATYAMGWYRQAHGKERELVAAITRSGGITYYADSVKGRFTISRDNAKKTVYLHMKSLKPEDTAVYYCNARTRSPTFSGRYYWGQATQVTVSS” is “high polyreactivity”; for “QVQLVESGGGIVQAGGSLRLSCAASGSTFDGYAMGWYRQAPGKERELVAAITRSGGSTYYADSVKGRFTISRDNAKNTVYLQMNSLKPEDTEVYYCNKYGYKGGVGYDYWGQGTQVTVSS” it is “high polyreactivity”. To “QVQLVESGGGIVQAGGSLRLSCAASGSTFNDNAMGWYRQAPGNERELVAAITGGGGRTYYADSVKGRFTISRDNAKNTVYLQMNSLKPEATAVYYCNRGATFEYWGHGTQVTVSS” belongs “low polyreactivity”; to “QVQLVESGGGIVQAGGSLRLSCAASGSTFQTYVMGWYRQAPGKERELVAAISSGGSTNYADSVKGRFTISRDNAKNTVYLQMNSLKPEDTAVYYCAKRWPYFRRGKDGYWGQGTQVTVSS”, “low polyreactivity”.

For the sequence “QVQLVESGGGIVQAGGSLRLSCAASGSTFRGYAMGWYRQAPGKERELVAAITYISDSTYYADSVKGRFTISRDNAKNTVYLQMNCLKPVDTAVYYCNAYYDGDWRYTSQETGDHWGQGTQVTVSS”, the “polyreactivity (PSR sort gate)” value is “low polyreactivity”. To “QVQLVESGGGIVQAGGSLRLSCAASGSTFSSYAMGWYRQAPGKERELVAGITNSGGSTYYADSVKGRFTISRDNAKNTVYLQMNSLKPEDTAVYYCAAFPRTYSGYYYWGQGTQVTVSS” belongs “high polyreactivity”; to “QVQLVESGGGIVQAGGSLRLSCAASGSTFVNYTMGWYRQAPGKERELVATITWSGDSTYYADSVKGRFTISRDNAKNTVYLQMNSVKPEDTAVYYCAGAPLETYYYWGQGTQVTVSS”, “low polyreactivity”. To “QVQLVESGGGIVQAGGSLRLSCAASGSTSRDYAMGWYRTAPGKERELVAAITWSGGRTYYADSVKGRFTISRDNAKNTVYLQMNSLKPEDTAVYYCAAYHREGRRDDYWGQGTQVTVSS” belongs “low polyreactivity”; to “QVQLVESGGGIVQAGGSLRLSCAASGYIFKYYAMGWYRQAPGKERELVAAITGGVSTNYADSVKGRFTISRDNAKNTVYLQMNSLKPEDTAVYYCAAAITPSDTGSEYDYWGQGTQVTVSS”, “low polyreactivity”; to “QVQLVESGGGIVQAGGSLRLSCAASGYIFQYYAMGWYRQAPGKERELVAAITGGGSTKYADSVKGRFTISRDNAKNTVYLQMNSLKPEDTAVYYCAASLWYRISKYDYWGQGTQVTVSS”, “high polyreactivity”.
